According to the DeepSol protein solubility set:

Assay: soluble on expression in E. coli; label from the status in PepcDB or PDB records

Row | Sequence | soluble on expression in E. coli
1 | MGSDKIHHHHHHMETQDYAFQPGLTVGELLKSSQKDWQAAINHRFVKELFAGTIENKVLKDYLIQDYHFFDAFLSMLGACVAHADKLESKLRFAKQLGFLEADEDGYFQKAFKELKVAENDYLEVTLHPVTKAFQDLMYSAVASSDYAHLLVMLVIAEGLYLDWGSKDLALPEVYIHSEWINLHRGPFFAEWVQFLVDELNRVGKNREDLTELQQRWNQAVALELAFFDIGYDV | soluble
2 | MGSDKIHHHHHHMEVEITITVRKVRIPEDVAVLEIFGQYDKRARYLKKLFNVEFAVRDSEILIKGMDEKSVDAAHRVLDEIISITRDGHLLDWTEFEYLVERVSNSESVKEVYSNNSKGLIIGKKVKPKTLGQKKYLEAVEKNDVVFVIGPAGTGKTYLAVAVALDYLKMGKVNRIILTRPAVEAGEKLGYLPGDLSEKVEPYLRPLYDAIIDITSPDKFNSYRERGIIEIVPLAYMRGRTLNNSFIILDEAQNTTYQQMKMFLTRLGFNSKAVITGDITQVDIEKEKSGLIECQKILEGISGIEFVYLNESDVVRHPLVKKIIKAYEEYERSRKS | not soluble
3 | MGSDKIHHHHHHMEVERISGLKFHKKQDVAIVGAGMTTFKRRLNETGRELSYLAVKQALEEAGLTIDDIEMVVMGSAPDAFDGFHMKGEYLLDGSGGSNRPYMRVFVGGGTGVFAPIAGYWHVASGLADVCLVVCEEKMSSVHPHPQSAFKYIWDPILDRPLNPNLIWIFALEMRRYMHVHNIKHEDIALVSVKNKANALDHPCAQVAEKITVEDVLNSEPMALPVRRLDVSPPSDGAAALIMVAPHIARQLTDNPVWVTGVGWALDTTWWTNRDLYFPRYVAEAAKMAYRMAHITDPRKEIDVAEPYDPFDYKELHHMEGLGLAKKGEAPILTREGVTQRDGDLPTCPSGGLLGVGNPIAATMGVKACEIYWQLAYRAGKRQVAKEVTTGVCQAWGDLMQVGTVMVMSNKR | not soluble
4 | MGSDKIHHHHHHMFDRYEAGETAVLVHIDFSDEERREDLVELQLLVESAGARSVGVITGSRRSPDRKFFIGSGKAEELAALVAATEANVVIFNHALSPAQERNLEQVCQCRVLDRTSLILDIFAQRARTHEGKLQVELAQLRHMSTRLVRGWTHLERQKGGIGLRGPGETQLETDRRLLRGRIKNINKRLERVDKQREQSRRARKRSDMPTVSLVGYTNAGKSTLFNALTSSDVYAADQLFATLDPTLRKLDLPDGAVILADTVGFIRHLPHDLVAAFKATLQETRQAELLLHIVDCADENMADNFEQVQSVLKEIDADEVMQLIVCNKIDLLEDVTPRIEYDDRGKPVRVWVSAHKRLGFDLLLKAITELIGEVIHEFTLRIPATAGHYLGQFYRLDAIQQKEYDDLGNCILSVRLSDADWRRLAKQSQGELETFIFDPSIEKAVC | not soluble
5 | MGSDKIHHHHHHMFDWNDVRFFLALQRNGKLLGAARQMGTTHATVARHIAALEKVLGQPLFVQQADGYSLTAAGRQLLPLAESLENTASQMLDSGSKGHAEVSGVVRLGAPEGLGALFLARHMPALMARYPELEIDLVAVPRFVSVTSREVDIAIALERPQANMVVTRKLTDYCLGLYATQAYLAAHPPIREREDLNGHAILAYVDDLLFTRELMYHHGLCRHPSMPLRSTSVVAQREAALADGGIAVLPYYTTYDDPRLTQILPELRIIRSYWISARSNIRRTLRYRVVWDYVVELCQNMQWLLLQEEQNRSIETA | not soluble
6 | MGSDKIHHHHHHMFFETTFHDATEQEASLPGWRQEYRQVSTGGYDGRTMAILLPGVEILRETISVGTEQMFSAPEGSMIFYYYPKRDRSELVRGEKATGVSGFALNWTNRIGFMDADSDLLMLVLRRDAVADEDRSRIAELVEPPLENAAFLADWLLSLLGGARQQSHPCAWGKFDGVLADVITDRFELLFQKSLVRQTPHIAQTEQIYRKIRDRIFDAPDMPHSVKSLSRDLGVSAFNLRASCQSFTQIPLDRILMMLRLNGARRDLLHARCSPRKVSDIAMDWGFFHWSRFALRYKSLFGETPSQTLKG | not soluble
7 | MGSDKIHHHHHHMFLRNMWYVAAFSADVKPGKCLARTFLNEPVVLFRTASGSLGALIDRCSHRAMPLSEGHVDGDIIRCPYHGLEFNAAGVCAHIPGQERIPAAANVRSYPVSERDGLIWIWMGEPEKADLRSIMSNPEHRDPGWSWRPYYMHVNSNWQLLVDNILDLTHVAYIHANTIGGNPQTHFNADMSVQFDGEKVTLLRKMPNSVPPKTYVAAGGFKGNVDRWQMVEYRPCGGNVLRVNAGACEVGTGAYEGRRDNGFTLLNVHGVTPETETTTHYIWTICTDAPRESGVPDMLFDQFYETICEDERALEAQQRRINDMPDMRFVGIASDGAVSRARLLLERLHENETAVTS | not soluble
8 | MGSDKIHHHHHHMFMVKITILSPEGRSCSVWSLKNEIEKLGAKCDIFLLSSPENLMSHDFKLETDLIHSRCGIGDYFDRLTLYSWQFINALEVEGCRFINPIKTLYLTSDKFKCIKLLAKNKIKTPKTALIRDYEDAVKFIEKYNLRFPVVIKNSFSKCGLKVFMARNYDELKQLTKNAIWEGKLIQEFIDFKENDLYRDMRILVVDGEVVGGYRRVSRDFRTNLYLGNVVEKLNIDEELEELALKCADLSEAVILGVDILPTKDNYYVIELNSSPGTKGFRDIGINADKKIAEALVRYAKS | not soluble
9 | MGSDKIHHHHHHMFPLVTITGEPFERGQQYGAATAALIRHSIASYARLFAYRRGMDWEAVQQAALAYEPLLHDVAPDLLTEMRGIAVGASRTLAEIIALNVRTELLAGVGVGFHHPEAAAALARNRAAGVPQHQEQLPATPATGSDDGECTTAAASPPATANGRVWLAQTWDWQGDQRAACVLLRVSGPDTPTLLTLTEAGMVAKIGLNEAGIAVGLNLLRSRADGQQQGMPVHVLLRQMLQSTDTVTARRLVSQIPAAGSSCITLAGADGELVALELTPTGIAEIPAQEGLLAHANHCLDGGTAAGECPLEPTSTTRERYGRAWELLHAAAGQIDLDVLQVILRDHDGAPRCICRHPDPRVAAVDRNESVCGVIIDLRGRTMHVAANIPCQAPFVPFML | not soluble
10 | MGSDKIHHHHHHMFRRIREDLIKNHMEGPQGFRSMLAGWVECGFCTIVEDEIRFWNGSRIYLCHCKDEKDRFKYQGAEIHVLLIDELTHFTEVIYRFLRNRVRMVGIKLPAKYAGRFPRILCGANPGGIGHQFVKATFIDGATAMKVYTTEASEGGMRRQFIPAQLEDNPSMNDNDPGYENRLMGLGSESLVRAMRYGDWDVVEGAYFDNFERRRHVVKPFTIPDHWIRFRAGDWGSAKPFAFGWYVVASDDTIIAPGVVVPRGALVKYREWYGVKIDKSGKFLPDVGLKLHAEAVGAGVRQRDYDDIIVYGVLDPAAFSQDGGPSIAERMTRGTTGSNGSTFRRADNKRTAGRGAMGGWDQLRGRLTGDGDGRPMLFFFDTCIHTIRTLPALQHDEANPEDLDTKQEDHAADETRYACMSRPWIAKSKVPAPQVPEGHIALPGAPDEAAGNRRIRI | not soluble
11 | MGSDKIHHHHHHMFSLFETFIVVYETKSFTLAGKYLFISQPTVTVRIKKLEEELKSTLFLRGKHQEIIPTEAAILFYPKAIAYLKKWEEDQAEVQKKSLAKHPFKIGVSHSAALSIMPGIFKVFEGELEHLDVEINMYDSEKVFELVANHDLHFGIIERLLISDQTETFPLFLDELVLAGNTDSETFFTRESGSGIGYYIKRYLKSAPSAQRNIVRMNSNEMIISHIKAGLGSSLISKSFLTDDIPYQELGSNYHREFLGVSFDEEKDPMIQKLISKIKKETEIH | not soluble
12 | MGSDKIHHHHHHMFSQTIFFGMKQSARGVSVAFSTLQEASMHKRVLIQAASALLALQFMAVPVFAAGSSGGGSDQTVTQCKKGEVWDKKKKKCVAPQEGMLDDDSIYDAGHALAMAGRYDEAISVLTLAANKQDPRILNYLGYSHRHSGRVTVGLGYYEEALRIDPNYTLVREYLGEAHLQIGDLAGAQQQLMEIEKRTGKGSREYGMLSEQIDHFMRS | not soluble
13 | MGSDKIHHHHHHMFTSNQGAGRMNKEVGMDNPGLDVYLRDQKIGRLWLDDKRRFVFQYDSEWTHQKGAVPLSLHLPLREEIYPDDLARPFFSNLLPEAEVKRAIAQRLRISESNDFALLNSIGGECAGAVSVLPAGVAPAMKPGYRELSEEELHRIIIELPRRPLLAGVEGMRLSLAGAQNKLPVYMEDHRIFIATGNAPSSHILKPPIRDLEDTVGNEAFCMILAQRLGLQVPVVTIRRGLDRIFIIARYDRSRDTDGHIVRLHQEDFCQALGFLPEQKYENEGGPSLKQCFTLLQEKSIRPAADRMALLRWTIFNLLIGNDDAHAKNLAMIFTDRGPRLAPFYDLICTQVYPDLTEKQAMRIGGENRPSWILQKHWDRFSESTAIKPNLVLKTLKEMSAAIALAAQTLSSEFIKKYGTCTIIEEILAVIEKRAESV | not soluble
